Measured values published in article PMC4859480.

Target: HHV-6B U14 N-terminal domain (U14-NTD), residues 2-458 (human herpesvirus 6B (HHV-6B) strain HST)
Test: crystal structure

HHV-6B U14 N-terminal domain (U14-NTD), residues 2-458 (domain or fragment)
stoichiometry N: 2
